# According to paper PMC7786333, “Integration of diverse DNA substrates by a casposase can be targeted to R-loops in vitro by its fusion to Cas9”:
# Biological target: Cas9 (Streptococcus pyogenes, UniProt Q99ZW2 1-1368)
# Assay: R-loop formation gel assay (deproteinised); sgran50; 5 mM EDTA; efficiency similar to fusions; 25 mM Tris pH 7.5, 106 mM KCl, 50 ug/ml BSA, 5 mM EDTA, 2 mM DTT, 9% glycerol, 37 C; 150 nM protein, 300 nM sgRNA, 25 nM Cy5-dsran50, 75 nM unlabelled MW12 dsDNA competitor; 8% acrylamide TBE gel
# Conditions: protein: recombinant, tags: His6, label: 5'-Cy5 on ssran50 strand (strand 2), blunt 50 bp DNA target plus sgRNA, PAM TGG
# Cas9, sequence (Q99ZW2 whole entry, the tested form may be a part): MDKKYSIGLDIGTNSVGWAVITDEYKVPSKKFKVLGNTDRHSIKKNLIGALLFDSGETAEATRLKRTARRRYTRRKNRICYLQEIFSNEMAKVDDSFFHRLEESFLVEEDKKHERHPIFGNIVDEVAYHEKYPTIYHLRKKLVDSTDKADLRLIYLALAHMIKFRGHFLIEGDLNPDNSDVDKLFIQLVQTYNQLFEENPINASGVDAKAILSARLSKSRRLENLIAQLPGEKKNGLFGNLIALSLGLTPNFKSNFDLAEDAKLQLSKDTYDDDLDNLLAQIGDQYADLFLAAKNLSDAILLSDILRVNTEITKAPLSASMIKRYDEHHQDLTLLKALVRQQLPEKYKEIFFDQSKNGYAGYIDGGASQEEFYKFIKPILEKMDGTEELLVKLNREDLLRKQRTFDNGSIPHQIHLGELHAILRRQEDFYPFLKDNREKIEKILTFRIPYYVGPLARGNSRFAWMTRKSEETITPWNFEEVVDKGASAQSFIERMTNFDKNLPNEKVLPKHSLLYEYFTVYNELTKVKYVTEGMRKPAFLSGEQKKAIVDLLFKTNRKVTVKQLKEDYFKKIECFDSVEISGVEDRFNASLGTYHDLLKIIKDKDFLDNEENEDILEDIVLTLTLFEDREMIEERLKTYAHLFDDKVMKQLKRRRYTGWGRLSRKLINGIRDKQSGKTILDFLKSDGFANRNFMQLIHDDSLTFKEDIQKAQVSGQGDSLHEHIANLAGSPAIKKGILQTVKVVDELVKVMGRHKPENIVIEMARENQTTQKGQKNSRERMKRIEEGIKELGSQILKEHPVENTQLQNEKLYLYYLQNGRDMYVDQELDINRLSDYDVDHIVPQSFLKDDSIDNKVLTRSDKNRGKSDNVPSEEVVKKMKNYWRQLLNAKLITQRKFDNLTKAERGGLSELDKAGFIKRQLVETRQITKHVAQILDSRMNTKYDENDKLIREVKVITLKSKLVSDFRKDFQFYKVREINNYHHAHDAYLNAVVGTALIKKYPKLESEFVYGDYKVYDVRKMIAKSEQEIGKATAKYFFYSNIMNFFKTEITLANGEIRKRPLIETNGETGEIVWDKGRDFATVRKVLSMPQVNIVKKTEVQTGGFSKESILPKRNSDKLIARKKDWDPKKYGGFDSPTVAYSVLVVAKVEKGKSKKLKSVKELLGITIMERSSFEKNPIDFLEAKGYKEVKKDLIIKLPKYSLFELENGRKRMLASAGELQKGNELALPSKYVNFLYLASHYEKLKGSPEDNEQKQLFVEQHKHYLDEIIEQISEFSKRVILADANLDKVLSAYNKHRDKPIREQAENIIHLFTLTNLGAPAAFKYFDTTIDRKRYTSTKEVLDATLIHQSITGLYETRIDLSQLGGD
binder,measurement,value
sgran50 + dsran50 (mixed) RNA: GGUAGACGAUUACAUUGCUACAGUUUUAGAGCUAGAAAUAGCAAGUUAAAAUAAGGCUAGUCCGUUAUCAACUUGAAAAAGUGGCACCGAGUCGGUGCUU DNA 1: CAACGTCATAGACGATTACATTGCTACATGGAGCTGTCTAGAGGATCCGA DNA 2: TCGGATCCTCTAGACAGCTCCATGTAGCAATGTAATCGTCTATGACGTTG,binding result,binds
